± gives the uncertainty stated by the source.

We go through 97 substances from the supplement of paper PMC12042874.

This data set in a line: amyloid nucleation score (Sup35N fusion, yeast selection) (log enrichment); library NNK3; higher = more nucleation; inactive = no reads after selection. A digest of the protocol:
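Peptides of 20 random codons, each fused to Sup35N, were expressed in psi-negative yeast. Cells were induced with 100 μM copper sulfate for 24 hours and grown 7 days at 30°C on medium lacking adenine and uracil, and plasmid inserts before and after selection were Illumina-sequenced. Nucleation scores are DiMSum log enrichments of output over input reads, centred on the mode score of non-aggregating sequences, and sequences under 100 input reads were excluded.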
Regarding DDRLCLGASENVWGFTVVRR, the amyloid nucleation score entry was “inactive”. The entry for SFDNSWVVGAIELNDFDSWH is “inactive”; for FEVIFYSGYAYLACPRRQCH it is “inactive”; for SNPVFFVMLAPLWVAQLSNP it is “inactive”. In the case of PFSRYPVGCLGVSPYRVISS, the amyloid nucleation score result was “inactive”. The figure for SLLVLETDGCFPVAPLAGDS is -0.926 ± 1.1. Regarding KAPDVLVNGRIL, the amyloid nucleation score result is “inactive”. On to GLLFCSL, for which the amyloid nucleation score is -0.248 ± 0.34.

With VFVDYCNKYGEFVSGTAQVS, the amyloid nucleation score entry is “inactive”. In turn, WYGVSACYGWHNVAHSSRSL returned an amyloid nucleation score of 1.22 ± 0.18. The entry for VGSLDVIVINQKFSVFVMSC is “inactive”; for VFYFDSFRICSYVVLYGHMA it is 0.601 ± 0.28. In the case of TTLVGHASPVKAMTGTFTWH, the amyloid nucleation score result was “inactive”. As for EAGSPALRR, the amyloid nucleation score came to 0.078 ± 0.7. The entry for PLGVRQQWEGSQVDPCGLRA is “inactive”; for IMLKL it is “inactive”.

Turning to LRFTRRFYSRGWVRW, the amyloid nucleation score entry was “inactive”.

Consider NRTRCGDYILGCQSSFDTCH, for which the amyloid nucleation score entry was “inactive”. As for SCTYVSFVSSVRVTA, the amyloid nucleation score entry is “inactive”. The entry for KRISDRIFCFCLKHGVGLFG is “inactive”; for SKKYFVHFILVNNFGVGY it is “inactive”; for SICCGDSVVFTVSLPVAGSF it is “inactive”. The figure for YDVSRDATDCRVYCCPFSRS is 1.23 ± 0.1. The entry for ASFISCSIMYYFIVFCL is “inactive”; for SYVVRLMSLVAWN it is “inactive”. HKYLWCIPWETLCKTWPFFS: the amyloid nucleation score result is “inactive”.

Take CFDWYFDNDTRFIVGAMLVW: the amyloid nucleation score entry was “inactive”. The entry for RAFLL is “inactive”.

As for RRSLHCIDCSRFPLIFHCTV, the amyloid nucleation score entry was “inactive”. With SSMWF, the amyloid nucleation score result is “inactive”. Take NCNKMCRSCFRCQKTFWVWF: the amyloid nucleation score entry is “inactive”. The entry for NLSSVSIVALLQRVPIYKYL is “inactive”; for VTLMILKGVFKFM it is -0.136 ± 1. The entry for KVTMPLQSYTLYSMYICLLS is “inactive”; for YRNNAFPSEMHPIGRLEYAV it is 0.456 ± 0.15; for SKSITEADNPRNILNASGVE it is “inactive”. The entry for SNDIRF is “inactive”; for FYSIFN it is “inactive”. Consider CFVYRTLISNLFSIWHSLQF, for which the amyloid nucleation score entry was “inactive”.

In the case of KYGWVLFYGCYYCGHGWTNL, the amyloid nucleation score result was “inactive”. Consider MSSLDARIMSHYVYMVIDPV, for which the amyloid nucleation score result is “inactive”. The figure for YYLCLYLSPLLL is 1.28 ± 0.11; for IRITNDNFVVRLVSQTVGLK it is “inactive”; for IMSPTFGFQMLWPGPRHRLL it is “inactive”.

For the substance SILLDMSDQFPALGFSLFII, the amyloid nucleation score result was “inactive”.

In the case of SRWVLSWSIVITIHLDMRSL, the amyloid nucleation score entry was “inactive”. Turning to FILSAGSLHQLGRLVES, the amyloid nucleation score entry was “inactive”.

ECYTSCVMIYIIHCYKNLRL: the amyloid nucleation score entry was “inactive”. Consider ASVYTN, for which the amyloid nucleation score result is “inactive”. The entry for LKSIYLLKWCPTSQLRTTSV is “inactive”; for TDGYFYDRSSVERSL it is “inactive”. Regarding DYVIVCAMEKLNRTVLWAQG, the amyloid nucleation score result was “inactive”. Consider IEDAMVFLGTNSQTICLFNV, for which the amyloid nucleation score entry is “inactive”. The substance VFVFLPSWDISYDDPRGWSV showed an amyloid nucleation score of 0.241 ± 0.19. The entry for LNRLSCFSCPLFV is “inactive”.

Take HTLLHEF: the amyloid nucleation score result was “inactive”. With LCAFHKRNRQEVACVMFVKS, the amyloid nucleation score entry is “inactive”. In the case of NVYLKLTA, the amyloid nucleation score entry is “inactive”. The entry for FTPLNDDNKCVVSYEY is “inactive”; for SLGKPSHREFYDFVVAAKTT it is “inactive”. The entry for FSITVFFVNIAATSKPYLDK is “inactive”; for GTGWVTSVFLCTVNWVDHRR it is 2.4 ± 0.084; for VKNIWIDVTMGDQLFIPNFY it is 2.36 ± 0.051. The entry for SQVVTVRCPDSSLCEIFSWG is “inactive”. For IINLQSWQHLLNRHGTELSV, the amyloid nucleation score result is “inactive”.

RKKLEGVFVRLFQFANPIVG: the amyloid nucleation score result is “inactive”. As for CIQLVVT, the amyloid nucleation score result was “inactive”. KIMFLMGSASMDSTGTC returned an amyloid nucleation score of 0.863 ± 0.12. The entry for PNWEWIVYKMLGTFVHSWVM is “inactive”; for NSYMHGQDF it is “inactive”; for FWNVCLDCISR it is “inactive”. The entry for LMYRYVTLNAFRESISYISS is “inactive”; for IVQLVIFLSRYDVLELCMHK it is 0.07 ± 0.47; for HWVLQYRCSARKRSHLRYSM it is “inactive”.

Take MAFGWWLDSMLYFITDALVP: the amyloid nucleation score result was “inactive”. As for TAIYIDRNECSLKVYRIKDK, the amyloid nucleation score came out at 0.612 ± 0.44.

Consider VSWYCCTFAAFILWNSSWCI, for which the amyloid nucleation score entry is “inactive”. The entry for NCLVVTGRKVPSETHLVFLM is “inactive”.

Turning to LVGLGLGFCYLIKTFVTLLV, the amyloid nucleation score entry is “inactive”. As for TSNIHY, the amyloid nucleation score entry was “inactive”. The entry for TTCCRFYREIKFFRIS is “inactive”; for ILVTASTAYLDVRVKWIQTF it is “inactive”; for LVNLTVTYISQYFPFYDSPT it is 2.92 ± 0.062. In the case of LCNKWY, the amyloid nucleation score entry was “inactive”. As to PFHLRVMKIRLRLPVVHLKG, the amyloid nucleation score result was “inactive”. The entry for LRWIGH is “inactive”.

In the case of YTVGCSYMVWVVFNFFYFSE, the amyloid nucleation score is 1 ± 0.14. The entry for VYLRSISFVRTRQMVWCLLP is “inactive”; for SIGCSSGFGRCLDLG it is “inactive”; for LPHPALKDFRISVRQLIWVR it is 1.04 ± 0.17. The entry for RYLWVLNRIGPVWCSGFRVW is “inactive”; for KTHCCC it is “inactive”. The entry for AEWWSTVCH is “inactive”; for RFIGGTYH it is “inactive”; for LFWPICFHNMTFVLYTSLLN it is “inactive”. The substance RSTVHRYSCDNCVEVIISKQ came in with an amyloid nucleation score of 1.18 ± 0.12. The entry for CTLGHCMKLSMSSFPAVGKV is “inactive”.
